This is an account of results in paper doi:10.1101/2024.03.27.586873.

The target of this test is 6xHis-tagged Imp1 (ΦKZ gp69) (phage ΦKZ). The test can be described thus: SEC + other: mass photometry.

“FLAG-tagged Imp6 (ΦKZ gp67) (natural protein)”: the stoichiometry N (gp67 per Imp1) was 2.
